In patent US20190263922A1 (TIGA TX, published 2019):
Blank lines part the entries; values can stand above or below the binder they belong to.

Key:
[1] = biological target: T1, human CD20 (human, UniProt P11836 1-297); assay: FACS on Daudi cells, dilution series
T1 construct: whole, on cells; Always presented on cells; also called MS4A1; CD20 WT
T1 sequence (looked up): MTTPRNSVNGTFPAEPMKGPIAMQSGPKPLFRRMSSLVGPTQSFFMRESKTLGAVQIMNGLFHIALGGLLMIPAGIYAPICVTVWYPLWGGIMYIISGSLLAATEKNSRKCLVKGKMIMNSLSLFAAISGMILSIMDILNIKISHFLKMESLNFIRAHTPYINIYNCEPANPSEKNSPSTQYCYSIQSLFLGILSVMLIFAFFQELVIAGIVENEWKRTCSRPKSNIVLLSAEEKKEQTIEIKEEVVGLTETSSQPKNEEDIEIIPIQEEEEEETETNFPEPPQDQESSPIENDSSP
Procedure: FIG. 8. […] Binding was determined by FACS after incubation of Daudi cells with a dilution series of mAb.
10⁵ Daudi cells were plated out in a 96-well plate and incubated with IgG1-CD20 mAbs (in PBS) for 45 min on ice. After washing, bound CD20 mAbs were detected with goat-F(ab′)₂-anti-hIgG-RPE (Southern Biotech) and subsequently measured on a FACS Canto II (BD).

[2] = biological target: T1, human CD20; assay: LigandTracer Green, 10 nM FITC-labeled mAb on SKBR3-CD20 cells, OneToOne fit, non-competitive dissociation
Procedure: (§1) Kinetics analysis of interactions between the mAbs and CD20 was performed by using the LigandTracer green Technology (Ridgeview Instruments AB). 10⁶ SKBR3-CD20 cells were seeded on one side of a 10 cm culture dish (Greiner) as target cell area and association of 10 nM FITC-labeled CD20 mAb was measured. For non-competitive or competitive dissociation, labeled mAb solution was replaced by RPMI culture medium or 100 nM unlabeled mAb of the same clone, respectively. Analysis was performed using an OneToOne fitting model in TraceDrawer (Ridgeview Instruments AB).
(§2) A slow Ab off-rate might favor the formation of Ab-Clq complexes, the first component of the classical complement pathway. […] To characterize interaction kinetics and affinity of mAbs, we used the LigandTracer technology to record real-time binding and dissociation of Abs to cellular receptors.

[3] = biological target: T1, human CD20; assay: LigandTracer Green, 10 nM FITC-labeled mAb on SKBR3-CD20 cells, OneToOne fit, competitive dissociation (100 nM unlabeled mAb of the same clone)
Procedure: as §1, §2

[4] = biological target: T1, human CD20; assay: binding assay, parental against L11V version, data not shown
[5] = biological target: T1, human CD20; assay: FACS on Ramos cells, dilution series

binding result [1]: binds
B1: IgG1-CD20-9 (antibody, V domains shown)
VH: QAYLQQSGAELVRPGASVKMSCKASGYTFPSYNMHWVKQTPRQGLEWIGAIYPGNGDTSYNQKFKGKASQTVDKSSSTVYMQLSSLTSADSAVYFCARSRLFDSSYGWYFDVWGTGTTVTVSS
VL: QIVLSQSPAILSAYPGEKVTMTCRARSSVSYIDWYQQKAGSSPKPWIYATSNLASGVPARFSGSGSGTSYSLTISRVEAEDAATYYCQQWTSNPPTFGGGTKLEIKR
notes: Chimeric: human IgG1 constant region and human kappa light chain; also called chimerized version of m9

binding result [1]: binds
B2: IgG1-CD20-10 (antibody, V domains shown)
VH: QAYLQQSGADLVRPGASVKMSCKASGFTFPSYNLHWVKQTPRQGLEWIGAIYPGNGDTSYNQKFKGKATLTVDKSSSTAYMQLSSLTSEDSAVYFCARSAYYGSNVWFFDVWGTGTTVTVSS
VL: QIVLSQSPAILSASPGEKVTMTCRASSSVSYMDWYQQKPGSSPKPWIYATSNLASGVPTRFSGSGSGTSYSLTISRVEAEDAATYYCQQWISNPPTFGAGTKLDLKR
notes: Chimeric: human IgG1 constant region and human kappa light chain; also called chimerized version of m10

Kd [2]: 0.21 nM
koff [2]: 1.77e-05 s⁻¹
kon [2]: 85400 M⁻¹ s⁻¹
Kd [3]: 0.96 nM
koff [3]: 7.8e-05 s⁻¹
kon [3]: 81700 M⁻¹ s⁻¹
B3: m2 (mIgG2c-CD20 mAb) (antibody, V domains shown)
VH: QAYLQQSGAELVRPGASVKMSCKASGYTFTSYNMHWVKQTPRQGLEWIGGIYPGNGDTSYNQKFKGKATLTVDKSSSTAYMQLSSLTSEDSAVYFCARYYYGSSYGAMDYWGQGTSVTVSS
VL: QIVLSQSPAILSASPGEKVTMTCRASSSVSYMHWYQQKPGSSPKPWIYATSNLASGVPARFSGSGSGTSYSLTISRVEAADAATYYCHQWTFNPPTFGGGTKLEIK
modifications: FITC- or Alexa647-labelled in the kinetic assays; label sites not given
notes: Mouse IgG2c hybridoma mAb; FITC- or Alexa647-labeled in the kinetic assays

Kd [2]: 0.19 nM
koff [2]: 8.17e-06 s⁻¹
kon [2]: 44200 M⁻¹ s⁻¹
Kd [3]: 0.51 nM
koff [3]: 2.82e-05 s⁻¹
kon [3]: 55700 M⁻¹ s⁻¹
B4: m10 (mIgG2c-CD20 mAb) (antibody, V domains shown)
VH: QAYLQQSGADLVRPGASVKMSCKASGFTFPSYNLHWVKQTPRQGLEWIGAIYPGNGDTSYNQKFKGKATLTVDKSSSTAYMQLSSLTSEDSAVYFCARSAYYGSNVWFFDVWGTGTTVTVSS
VL: QIVLSQSPAILSASPGEKVTMTCRASSSVSYMDWYQQKPGSSPKPWIYATSNLASGVPTRFSGSGSGTSYSLTISRVEAEDAATYYCQQWISNPPTFGAGTKLDLK
modifications: FITC-labelled in the LigandTracer assay; label sites not given
notes: Mouse IgG2c hybridoma mAb; FITC-labeled in LigandTracer

Kd [2]: 0.25 nM
koff [2]: 1.13e-05 s⁻¹
kon [2]: 45700 M⁻¹ s⁻¹
Kd [3]: 0.12 nM
koff [3]: 6.53e-06 s⁻¹
kon [3]: 53900 M⁻¹ s⁻¹
B5: m9 (mIgG2c-CD20 mAb) (antibody, V domains shown)
VH: QAYLQQSGAELVRPGASVKMSCKASGYTFPSYNMHWVKQTPRQGLEWIGAIYPGNGDTSYNQKFKGKASQTVDKSSSTVYMQLSSLTSADSAVYFCARSRLFDSSYGWYFDVWGTGTTVTVSS
VL: QIVLSQSPAILSAYPGEKVTMTCRARSSVSYIDWYQQKAGSSPKPWIYATSNLASGVPARFSGSGSGTSYSLTISRVEAEDAATYYCQQWTSNPPTFGGGTKLEIK
modifications: FITC-labelled antibody in the LigandTracer assay; the label positions are not defined.
notes: as for B4

binding result [1]: binds
B6: IgG1-CD20-7 (antibody, V domains shown)
VH: QAYLQQSGAELVRPGASVKMSCKASGYTFASYNMHWIKQTPRQGLEWIAAIYPGNGDTSYNQKFKGKATLTVDKSSSTAYMQLSSLTSEDSAVYFCARTYYYGSSPYWSFDVWGTGTTVTVSS
VL: DIQMTQSPASLSASVGETVTVTCGASYNIYGALNWYQRKQGKSPQLLIYGATNLADGMSSRFSGSGSGRQYSLKISSLHPDDVATYYCQNVLSNPPTFGGGTKLEIKR
notes: Chimeric: human IgG1 constant region and human kappa light chain; also called chimerized version of m7

binding result [4]: binds
B7: IgG1-CD20-1 with the L11V mutation (antibody)
heavy: not shown
light: QIVLSQSPAVLFASPGEKVTMTCRARSSVSYMDWYQQKPRSSPKPWIYATSNLASGVPARFSGSGSGTSYSLTISRVEAEDAATYYCQQWTSNPPTFGSGTKLEIKRTVAAPSVFIFPPSDEQLKSGTASVVCLLNNFYPREAKVQWKVDNALQSGNSQESVTEQDSKDSTYSLSSTLTLSKADYEKHKVYACEVTHQGLSSPVTKSFNRGEC
notes: Chimeric human IgG1/kappa; leucine to valine at Kabat position 11 of the VH framework; also called IgG1-CD20-1 L11V

binding result [5]: binds
B8: IgA2 variant of m1 (IgA-CD20-1 as IgA2(m1)) (antibody)
heavy: QAYLQQSGAELVRPGASVKMSCKASGYTFTSYNLHWVKQTPRQGLEWIGAIYPGNGDTSYNQKFKGKATLTVDKSSSTAYMQLSRLTSEDSAVYFCARSNSYGSTYWYFDVWGTGTTVTVSSASPTSPKVFPLSLDSTPQDGNVVVACLVQGFFPQEPLSVTWSESGQNVTARNFPPSQDASGDLYTTSSQLTLPATQCPDGKSVTCHVKHYTNPSQDVTVPCPVPPPPPCCHPRLSLHRPALEDLLLGSEANLTCTLTGLRDASGATFTWTPSSGKSAVQGPPERDLCGCYSVSSVLPGCAQPWNHGETFTCTAAHPELKTPLTANITKSGNTFRPEVHLLPPPSEELALNELVTLTCLARGFSPKDVLVRWLQGSQELPREKYLTWASRQEPSQGTTTFAVTSILRVAAEDWKKGDTFSCMVGHEALPLAFTQKTIDRLAGKPTHVNVSVVMAEVDGTCY
light: QIVLSQSPAVLFASPGEKVTMTCRARSSVSYMDWYQQKPRSSPKPWIYATSNLASGVPARFSGSGSGTSYSLTISRVEAEDAATYYCQQWTSNPPTFGSGTKLEIKRTVAAPSVFIFPPSDEQLKSGTASVVCLLNNFYPREAKVQWKVDNALQSGNSQESVTEQDSKDSTYSLSSTLTLSKADYEKHKVYACEVTHQGLSSPVTKSFNRGEC
notes: Monomeric human IgA2(m1) constant region (pEE14.4-IgA2(m1)) and human kappa light chain; also called IgA2-CD20 mAb; IgA2-CD20 UMAB001

binding result [5]: binds
B9: IgA1 variant of m2 (IgA-CD20-2 as IgA1) (antibody)
heavy: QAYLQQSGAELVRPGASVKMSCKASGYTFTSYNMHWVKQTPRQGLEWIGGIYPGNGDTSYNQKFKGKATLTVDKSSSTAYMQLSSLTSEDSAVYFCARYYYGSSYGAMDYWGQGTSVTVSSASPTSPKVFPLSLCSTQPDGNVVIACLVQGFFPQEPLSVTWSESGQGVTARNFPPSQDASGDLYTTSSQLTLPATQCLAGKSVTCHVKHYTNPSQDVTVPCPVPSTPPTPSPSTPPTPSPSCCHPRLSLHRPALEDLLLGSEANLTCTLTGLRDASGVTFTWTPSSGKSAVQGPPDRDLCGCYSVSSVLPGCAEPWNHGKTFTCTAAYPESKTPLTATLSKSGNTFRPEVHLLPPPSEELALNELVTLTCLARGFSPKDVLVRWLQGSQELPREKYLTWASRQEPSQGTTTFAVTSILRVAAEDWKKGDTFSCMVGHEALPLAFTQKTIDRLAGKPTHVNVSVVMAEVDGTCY
light: QIVLSQSPAILSASPGEKVTMTCRASSSVSYMHWYQQKPGSSPKPWIYATSNLASGVPARFSGSGSGTSYSLTISRVEAADAATYYCHQWTFNPPTFGGGTKLEIKRTVAAPSVFIFPPSDEQLKSGTASVVCLLNNFYPREAKVQWKVDNALQSGNSQESVTEQDSKDSTYSLSSTLTLSKADYEKHKVYACEVTHQGLSSPVTKSFNRGEC
notes: Monomeric human IgA1 constant region (pEE14.4-IgA1) and human kappa light chain; also called IgA1-CD20 mAb; IgA1-CD20 UMAB002

binding result [5]: binds
B10: IgA1 variant of m1 (IgA-CD20-1 as IgA1) (antibody)
heavy: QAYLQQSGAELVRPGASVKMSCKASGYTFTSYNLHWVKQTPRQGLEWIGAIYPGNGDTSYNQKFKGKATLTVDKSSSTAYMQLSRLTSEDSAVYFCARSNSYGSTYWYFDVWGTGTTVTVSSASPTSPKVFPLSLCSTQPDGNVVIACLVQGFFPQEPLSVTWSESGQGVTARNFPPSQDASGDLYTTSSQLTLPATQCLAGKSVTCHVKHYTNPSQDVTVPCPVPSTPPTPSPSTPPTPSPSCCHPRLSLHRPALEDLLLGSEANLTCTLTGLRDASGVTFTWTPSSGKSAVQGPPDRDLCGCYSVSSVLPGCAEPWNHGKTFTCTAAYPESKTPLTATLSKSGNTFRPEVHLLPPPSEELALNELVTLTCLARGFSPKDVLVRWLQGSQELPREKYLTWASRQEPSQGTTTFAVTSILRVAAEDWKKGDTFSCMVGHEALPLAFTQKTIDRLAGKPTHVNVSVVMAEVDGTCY
light: QIVLSQSPAVLFASPGEKVTMTCRARSSVSYMDWYQQKPRSSPKPWIYATSNLASGVPARFSGSGSGTSYSLTISRVEAEDAATYYCQQWTSNPPTFGSGTKLEIKRTVAAPSVFIFPPSDEQLKSGTASVVCLLNNFYPREAKVQWKVDNALQSGNSQESVTEQDSKDSTYSLSSTLTLSKADYEKHKVYACEVTHQGLSSPVTKSFNRGEC
notes: Monomeric human IgA1 constant region (pEE14.4-IgA1) and human kappa light chain; also called IgA1-CD20 mAb; IgA1-CD20 UMAB001

binding result [5]: binds
B11: IgA2 variant of m2 (IgA-CD20-2 as IgA2(m1)) (antibody)
heavy: QAYLQQSGAELVRPGASVKMSCKASGYTFTSYNMHWVKQTPRQGLEWIGGIYPGNGDTSYNQKFKGKATLTVDKSSSTAYMQLSSLTSEDSAVYFCARYYYGSSYGAMDYWGQGTSVTVSSASPTSPKVFPLSLDSTPQDGNVVVACLVQGFFPQEPLSVTWSESGQNVTARNFPPSQDASGDLYTTSSQLTLPATQCPDGKSVTCHVKHYTNPSQDVTVPCPVPPPPPCCHPRLSLHRPALEDLLLGSEANLTCTLTGLRDASGATFTWTPSSGKSAVQGPPERDLCGCYSVSSVLPGCAQPWNHGETFTCTAAHPELKTPLTANITKSGNTFRPEVHLLPPPSEELALNELVTLTCLARGFSPKDVLVRWLQGSQELPREKYLTWASRQEPSQGTTTFAVTSILRVAAEDWKKGDTFSCMVGHEALPLAFTQKTIDRLAGKPTHVNVSVVMAEVDGTCY
light: QIVLSQSPAILSASPGEKVTMTCRASSSVSYMHWYQQKPGSSPKPWIYATSNLASGVPARFSGSGSGTSYSLTISRVEAADAATYYCHQWTFNPPTFGGGTKLEIKRTVAAPSVFIFPPSDEQLKSGTASVVCLLNNFYPREAKVQWKVDNALQSGNSQESVTEQDSKDSTYSLSSTLTLSKADYEKHKVYACEVTHQGLSSPVTKSFNRGEC
notes: Monomeric human IgA2(m1) constant region (pEE14.4-IgA2(m1)) and human kappa light chain; also called IgA2-CD20 mAb; IgA2-CD20 UMAB002

binding result [4]: binds
B12: IgG1-CD20-2 with the L11V mutation (antibody)
heavy: not shown
light: QIVLSQSPAILSASPGEKVTMTCRASSSVSYMHWYQQKPGSSPKPWIYATSNLASGVPARFSGSGSGTSYSLTISRVEAADAATYYCHQWTFNPPTFGGGTKLEIKRTVAAPSVFIFPPSDEQLKSGTASVVCLLNNFYPREAKVQWKVDNALQSGNSQESVTEQDSKDSTYSLSSTLTLSKADYEKHKVYACEVTHQGLSSPVTKSFNRGEC
notes: Chimeric human IgG1/kappa; leucine to valine at Kabat position 11 of the VH framework; also called IgG1-CD20-2 L11V
